The text below walks through data of US20090175881A1 (SCHERING, published 2009).

Where a chain is given by its changes, count along the chain named. Numbers in names are those of the source.

Sequences and labels used below:
B1: humanized 16C10 wt (antibody, human IgG1, kappa, V domains shown)
VH: QVQLQESGPGLVKPSETLSLTCTVSGFSLPSHSVSWIRQPPGKGLEWIGIIWNNGGTDYNSAFKSRVTISVDTSKNQFSLKLSSVTAADTAVYYCARNMYITDYYYENYFMDAWGQGTLVTVSS
VL: DIVMTQSPLSLPVTPGEPASISCKSSQSLLFSENQKNYLAWYLQKPGQSPQLLIYWTSTRQSGVPDRFSGSGSGTDFTLKISRVEAEDVGVYYCQQSYYTPYTFGQGTKVEIKR
notes: Humanized antibody with the parental rat CDRs; Human IgG1/kappa; also called hu 16C10 wt; hu16C10 (wt)
B2: hu 16C10 VH N54Q/M96A/M100hF (antibody, human IgG1, kappa, V domains shown)
VH: B1 VH with N54Q, M99A, M111F
VL: B1 VL
notes: Human IgG1/kappa; also called hu 16C10 VH 54Q/M96A/M100hF; hu16C10 (N54Q/M96A/M100hF)
B3: hu 16C10 VH M100hL (antibody, human IgG1, V domains shown)
VH: B1 VH with M111L
VL: B1 VL
notes: Variant of hu 16C10 wt; Human IgG1/kappa
B4: hu 16C10 VH N54A (antibody, human IgG1, V domains shown)
VH: B1 VH with N54A
VL: B1 VL
notes: Variant of hu 16C10 wt; Human IgG1/kappa; also called hu16C10 (N54A)
B5: hu 16C10 VH M96L (antibody, human IgG1, V domains shown)
VH: B1 VH with M99L
VL: B1 VL
notes: as for B3
B6: hu 16C10 VH M96F (antibody, human IgG1, V domains shown)
VH: B1 VH with M99F
VL: B1 VL
notes: as for B3
B7: hu 16C10 VH M100hF (antibody, human IgG1, V domains shown)
VH: B1 VH with M111F
VL: B1 VL
notes: Variant of hu 16C10 wt; Human IgG1/kappa; also called hu16C10 (M100hF)
B8: hu 16C10 VH N54Q (antibody, human IgG1, V domains shown)
VH: B1 VH with N54Q
VL: B1 VL
notes: Variant of hu 16C10 wt; Human IgG1/kappa; also called hu16C10 (N54Q)
B9: hu 16C10 VH N60A (antibody, human IgG1, V domains shown)
VH: B1 VH with N60A
VL: B1 VL
notes: as for B3
B10: hu 16C10 VH M96A (antibody, human IgG1, V domains shown)
VH: B1 VH with M99A
VL: B1 VL
notes: Variant of hu 16C10 wt; Human IgG1/kappa; also called hu16C10 (M96A)
B11: hu 16C10 VH N60Q (antibody, human IgG1, V domains shown)
VH: B1 VH with N60Q
VL: B1 VL
notes: as for B3
B12: hu 16C10 VH M96K (antibody, human IgG1, V domains shown)
VH: B1 VH with M99K
VL: B1 VL
notes: Variant of hu 16C10 wt; Human IgG1/kappa; also called hu16C10 (M96K)
B13: rat 12E6 (antibody, V domains shown)
VH: EVQLEESGGGLVQPGRSLKLSCAASGFTFRDYYMVWVRQAPKKGLEWVASISYEGSSIYYGESVKGRFTISRDNAKSTLYLQMNSLRSEDTATYYCARHGFNPFDYWGRGVMVTVSS
VL: DIQMTQSPSSLSASLGDRVTITCRTSQDIGNYLSWFQQKPGKSPRLMIYGASNLEDGVPSRFSGSRSGSDYSLTISSLESEDTAIYYCLQYDKYPNTFGAGTKLELKR
B14: rat 30C10 (antibody, V domains shown)
VH: EVQLVESGGGLVQPGRSQKLSCVVSGFTFNNYWMTWIRQAPGKGLEWVASVSNTGSSTYYPASVKGRFTISRDNAKSTLYLQMNSLRSEDTATYYCTREGAYYLDYWGQGVMVTVSS
VL: DIVMTQSPSSLAVSPGETVTINCKSSQSLFWSESHMNYLAWYQQKPGQSPKLLIYYASTRQSGVPDRFIGSGSGTDFTLTISGVQAEDLAVYYCHHHYDSHTFGAGTKLELKR
notes: Parental rat monoclonal antibody (hybridoma PTA-7739); also called 30C10C
B15: rat 4C3 (antibody, V domains shown)
VH: QVELRESGPGLVQPSQTLSLTCTVSGFSLPSHSVSWIRQPPGKGLEWMGIIWNNGGTDYNSAFKSRLTISRDTSKSQVFLKMNSLQTEDTAMYFCARNMYITDYYYENYFMDAWGQGASVTVSS
VL: DIVMTQSPSSLAVSVGETVTLNCKSSQSLLFSENQKNYLAWYQHKSGQSPKLLVYWTSTRQSGVPDRFMGSGSGTDFTLTISSVQAEDLAIYYCQQSYYTPYTFGAGTKLELKR
B16: chimeric 16C10 (antibody, human IgG1, kappa, V domains shown)
VH: B15 VH
VL: B15 VL with V15I
notes: also called chimeric 16C10C
B17: hu 16C10 Fab (Fab, V domains shown)
VH: B1 VH with N54Q, M99A
VL: B1 VL
notes: also called Fab fragment of hu 16C10

For the first assay, the target named is T1, R&D Systems human IL-17A (human, UniProt Q16552 20-155).
T1 construct: Bought from R&D Systems, made in E. coli; also called R&D IL-17A; E. coli-derived human IL-17 (IL-17A)
T1 sequence: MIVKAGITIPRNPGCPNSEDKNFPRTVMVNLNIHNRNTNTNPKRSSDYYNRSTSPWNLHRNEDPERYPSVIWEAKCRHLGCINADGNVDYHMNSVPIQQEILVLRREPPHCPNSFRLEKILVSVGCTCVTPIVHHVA
Kind of assay: sandwich ELISA, IL-17A captured on rat 12E6, antibody titrated. A general note: ELISA stands for enzyme-linked immunosorbent assay.
Description: (§1) Binding of anti-human-IL-17A monoclonal antibodies to rhIL-17A is assessed using an ELISA as follows. Briefly, a capture antibody is bound to the wells of a microtiter plate, after which a fixed concentration of rhIL-17A is added. The monoclonal anti-IL-17A to be assayed is then titrated versus the bound rhIL-17A on the plate to determine the concentration of antibody needed to achieve half-maximal binding. A more detailed protocol follows.
(§2) A 96-well microtiter plate is coated with 100 μl/well of capture antibody (rat anti-hIL-17A 12E6, 0.5 μg/ml) in carbonate coating buffer pH 9.5 (the “assay plate”). Plates are incubated covered at 4° C. for 24 to 48 hours. The assay plate is washed three times in a plate washer (SkanWasher, Molecular Devices, Sunnyvale, Calif., USA) and blotted dry. The plate is then blocked with 200 μl/well of ELISA assay buffer (20 mM Tris-HCl, 0.15 M NaCl, pH7.4, 0.5% BSA, 0.05% Tween-20, SM EDTA) for one hour at 25° C. on an orbital shaker. The plate is washed, and 100 μl/well of either adenovirus-derived rhIL-17A or E. coli-derived human IL-17 (IL-17A) (R&D Systems, Minneapolis, Minn., USA) (0.1 g/ml) is added in ELISA assay buffer and incubated for 2 hours at 25° C. on an orbital shaker. […] Plates are incubated for 1.5 hours at 25° C. on an orbital shaker. Plates are washed and 100 μl/well secondary antibody (F(ab′)₂ goat anti-human kappa light chain—HRP, 1:20,000 dilution, BioSource, Carlsbad, Calif., USA) is added, except for assay blank wells. Plates are washed twice (i.e. two cycles of 3 washes per cycle) with plate rotation between cycles. TMB substrate (Kirkegaard & Perry Laboratories, Gaithersburg, Md., USA) is added at 100 μl/well and incubated 3-5 minutes on an orbital shaker. Stop solution is added (100 μl/well) and the plate is read for absorbance at 450-570 um on a plate reader (Versamax, Molecular Devices, Sunnyvale, Calif., USA).
For the molecule B1, the concentration for a half-maximal effect (EC50) – broadly, the concentration that produces a half-maximal response – is 0.13 nM.
Same read-out and setting: to B2 belongs 0.118 nM.

The next assay has as its target T2, rhIL-17A (human, UniProt Q16552 24-155).
T2 construct: Homodimer; expressed from adenoviral vectors in HEK 293 cells; also called recombinant human IL-17A; adenovirus-derived rhIL-17A
T2 sequence: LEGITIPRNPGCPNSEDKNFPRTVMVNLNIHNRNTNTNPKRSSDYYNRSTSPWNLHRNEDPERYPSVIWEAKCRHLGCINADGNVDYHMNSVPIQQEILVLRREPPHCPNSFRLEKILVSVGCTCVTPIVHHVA
Described as above.
Description: as §1, §2
B1 had an EC50 of 0.066 nM.
Still for that read-out and setting: the figure for B3 is 0.053 nM; for B4 it is 0.075 nM; for B5 it is 0.066 nM.
On the same count and under the same terms, the figure for B6 is 0.125 nM.
On the same count and under the same terms, the figure for B7 is 0.049 nM; for B2 it is 0.08 nM.
B8 displayed a half-maximal effective concentration (EC50) of 0.065 nM.
Molecule B9 came in with an EC50 of 0.063 nM.
Turning to B10, a half-maximal response (EC50) required 0.06 nM.
Still for that read-out and setting: to B11 belongs 0.074 nM; to B12, 0.068 nM.

For the next assay, the target named is T3, cynomolgus monkey IL-17A (cynomolgus monkey, UniProt A0A2K5TTB0 24-155).
T3 sequence: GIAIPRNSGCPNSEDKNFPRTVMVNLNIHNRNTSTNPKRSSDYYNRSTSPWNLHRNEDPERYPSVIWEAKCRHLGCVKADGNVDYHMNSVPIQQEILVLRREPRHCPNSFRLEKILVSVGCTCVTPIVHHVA
Description: cell-based or functional assay.
As for B13, the “IC50, inhibition of IL-6 production in NHDF cells, cyno IL-17A” value was above 70 nM.
Same read-out and setting: to B14 belongs 0.2 nM.
As to B15, the “IC50, inhibition of IL-6 production in NHDF cells, cyno IL-17A” value amounted to 0.2 nM.

The next assay addresses T2, rhIL-17A. Kind of assay: cell-based or functional assay.
With B13, the “IC50, inhibition of IL-6 production in NHDF cells, rhIL-17A” value was above 70 nM.
Still for that read-out and setting: the figure for B14 is 0.5 nM; for B15 it is 0.5 nM.

For a further assay, the target named is T2, rhIL-17A. Description: cell-based or functional assay. This is another data set of the same source.
Consider B1, for which the “IC50, synoviocyte IL-6 production, rhIL-17A (30 ng/ml)” value is 0.08 µg/mL.
Same read-out and setting: the figure for B4 is 0.06 µg/mL.
The same measure, in the same setting: to B7 belongs 0.07 µg/mL; to B2, 0.07 µg/mL.
Still for that read-out and setting: the figure for B8 is 0.06 µg/mL; for B10 it is 0.06 µg/mL.
Turning to B12, the “IC50, synoviocyte IL-6 production, rhIL-17A (30 ng/ml)” value came out at 0.06 µg/mL.

A further assay deals with T2, rhIL-17A. Description: indirect ELISA, rhIL-17A coated on plate.
Description: Binding of anti-human-IL-17A monoclonal antibodies to rhIL-17A is assessed using an indirect enzyme-linked immunosorbent assay (ELISA). Briefly, a fixed concentration of rhIL-17A is bound directly to the wells of a microtiter plate. The monoclonal anti-IL-17A to be assayed is then is added to the rhIL-17A coated plate, where the antibody is captured and quantitated.
A 96-well U-bottom MaxiSorp plate is coated with 50 μl/well of rhIL-17A (0.5 μg/ml) in carbonate coating buffer (the “assay plate”). Carbonate coating buffer is 2.9 g/L NaHFCO₃, 1.6 g/L Na₂CO₃, pH 9.4. Plates are incubated covered at 4° C. overnight. Monoclonal antibodies to be screened are serially diluted in duplicate across the rows of a V-bottom plate such that the final volume is 60 μl/well (the “serial dilution plate”). The assay plate is washed three times with PBS-Tween in a plate washer (SkanWasher, Molecular Devices, Sunnyvale, Calif., USA) and blotted dry. PBS-Tween is obtained by adding 0.5 ml/L Tween 20 to 1×PBS. Fifty μl from each well of the serial dilution plate is transferred to the assay plate and incubated at 25° C. for one hour. Secondary antibodies are diluted 1/2000 in diluent (PBS-BSA-Tween, which is PBS-Tween with 1 g/L BSA). The secondary antibody for rat monoclonal antibodies is goat anti-rat IgG (H+L)—HRP (Jackson ImmunoResearch Laboratories, Inc., West Grove, Pa., USA). The secondary antibody for chimeric and humanized monoclonal antibodies is F(ab′)₂ goat anti-human IgG Fcγ—HRP (Jackson ImmunoResearch Laboratories, Inc.). The assay plate is washed as before. Diluted secondary antibodies (100 μl/well) are added to the appropriate wells in the assay plate, and the plate is incubated at 25° C. for 45 minutes. The assay plate is washed as before.
For the molecule B1, the EC50 turned out to be 0.212 nM.
Still for that read-out and setting: to B16 belongs 0.157 nM.

A further assay deals with T3, cynomolgus monkey IL-17A. Kind of assay: KinExA, solution equilibrium. Background: In KinExA the mixture passes briefly over coated beads that capture the unbound partner.
Description: (§3) The equilibrium dissociation constants (Kd) for anti human IL-17A antibodies were determined using the KinExA 3000 instrument (Sapidyne Instruments Inc., Boise, Id., USA). KinExA uses the principle of the Kinetic Exclusion Assay method based on measuring the concentration of uncomplexed antibody in a mixture of antibody, antigen and antibody-antigen complex. […] The concentration of free antibody is measured by exposing the mixture to a solid-phase immobilized antigen for a very brief period of time. l practice, this is accomplished by flowing the solution phase antigen-antibody mixture past antigen-coated particles trapped in a flow cell. Data generated by the instrument are analyzed using custom software.
(§4) IL-17A was derived from either human (“hu”), cynomolgus monkey (“cyno”), or mouse (“mu”). IL-17A from the same species was used in both the immobilized and solution phases for each KinExA determination. Poly(methyl-methacrylate) (PMMA) particles (98 micron) were coated with human, cyno or mouse IL-17A according to Sapidyne “Protocol for coating PMMA particles with biotinylated ligands having short or nonexistent linker arms.” All experimental procedures were done according to the KinExA 3000 manual. All runs were done in duplicate.
(§5) Two-fold serial dilutions of the antigen were prepared and mixed with the antibody at constant concentration. The mixture was incubated for 2 hours at 25° C. to equilibrate.
Consider B14, for which the Kd (commonly the concentration at which binding is half-saturated) turned out to be 0.0326 nM.

The next assay deals with T2, rhIL-17A. Description: KinExA, solution equilibrium.
Description: as §3, §4, §5
As for B1, the equilibrium dissociation constant (Kd) came to 0.0088 nM.
Still for that read-out and setting: the figure for B17 is 0.0161 nM.
The same measure, in the same setting: to B4 belongs 0.0108 nM.
B2 showed an equilibrium dissociation constant (Kd) of 0.01 nM.
Consider B8, for which the Kd worked out at 0.007 nM.
On to B10, for which binding was characterised by a dissociation constant (Kd) of 0.0099 nM.

Another assay has as its target T4, FLAG-huIL-17A (human, UniProt Q16552 24-155).
T4 construct: also called FLAG-huL-17A; FLAG-IL-17A
T4 sequence: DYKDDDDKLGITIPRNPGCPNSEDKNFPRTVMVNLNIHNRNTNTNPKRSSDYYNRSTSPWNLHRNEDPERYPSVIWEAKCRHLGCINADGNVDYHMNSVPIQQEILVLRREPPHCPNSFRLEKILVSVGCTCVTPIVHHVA
Description: KinExA, solution equilibrium.
Description: as §3, §4, §5
As to B14, the Kd was 0.011 nM.

For a further assay, the target named is T2, rhIL-17A. Description: cell-based or functional assay. The source holds these as a separate data set.
Regarding B1, the “IC50, synoviocyte IL-8 production, rhIL-17A (30 ng/ml)” value (“IC50, synoviocyte IL-8 production” below) is 0.042 µg/mL.
On the same count and under the same terms, the figure for B4 is 0.025 µg/mL.
Same read-out and setting: to B7 belongs 0.05 µg/mL.
Regarding B2, the “IC50, synoviocyte IL-8 production” value was determined as 0.04 µg/mL.
Take B8: the “IC50, synoviocyte IL-8 production” value was 0.025 µg/mL.
Still for that read-out and setting: to B10 belongs 0.025 µg/mL.
Still for that read-out and setting: to B12 belongs 0.025 µg/mL.

In another assay the target is T3, cynomolgus monkey IL-17A. Kind of assay: ECL (Origen); area under the curve.
Description: (§6) Origen electrochemiluminescence technology, developed by IGEN, Inc. (Gaithersburg, Md., USA), and was employed to measure the binding of rat anti-human IL-17A antibodies (and one chimeric antibody) to FLAG-huL-17A. […] Electrochemiluminescence technology uses a stable ruthenium metal chelate (Ori-TAG) which, in the presence of tripropylamine (TPA), generates electrochemiluminescence upon voltage application. Paramagnetic beads, microns in diameter, act as the solid phase and facilitate rapid assay kinetics. The bead/complex is channeled through a flow cell and captured at an electrode by magnetic application. Voltage is applied and resulting electrochemiluminescence is measured.
(§7) ECL assays were performed as follows. Three-fold serial dilutions of anti-human IL-17A mAbs in 50 μl of the assay buffer were made in a 96-well microtiter plate to give 1-3 μg/ml final concentration in the first well. […] Finally 50 μl of Origen Streptavidin-Dynabeads at 0.1 mg/ml was added to each well. […] GraphPad Prism software (GraphPad Software, San Diego, Calif., USA) was used to plot the data and calculate area under the curve, which is a rough measure of binding.
Regarding B14, the “Area Under Peak” value was determined as 124000.

The next assay concerns the target T2, rhIL-17A. Description: cell-based or functional assay. This is another data set of the same source.
Turning to B2, the “IC50, Ba/F3 hIL-17Rc-mGCSFR proliferation assay, IL-17A at 100 pM” value was determined as 11 pM.
Consider B16, for which the “IC50, Ba/F3 hIL-17Rc-mGCSFR proliferation assay, IL-17A at 100 pM” value came to 29 pM.

A further assay addresses T4, FLAG-huIL-17A. Description: ECL (Origen), antibody titrated against biotinylated antigen; area under the curve.
Description: as §6, §7
For B14, the “Area Under Peak” value is 312000.
As for B16, the “Area Under Peak” value turned out to be 346000.
